Four sequences from the Immune Epitope Database (IEDB) can be followed below.

Where only a bound is given, the exact number is not on record here.

The target of one experiment is HLA-A*02:16. Briefly: IEDB peptide-MHC binding, purified MHC/competitive/fluorescence; filed as Kd, often an IC50 or EC50 that approximates it; ≥ and ≤ were set here for values at or beyond the usual limits of such assays. The conditions noted are these: source organism: Yersinia pestis Nepal516.
Another experiment concerns the target HLA-B*51:01. The experiment is described as above. The conditions noted are these: source organism: Yersinia pestis Nepal516.
Another experiment has as its target HLA-A*02:12. The description is as above.
The target in a further experiment is HLA-B*15:01. The description is as above. The conditions noted are these: source organism: Yersinia pestis Nepal516.
Another experiment concerns the target HLA-A*29:02. The description is as above.
The next experiment has as its target HLA-B*57:01. The description is as above.
The target of a further experiment is HLA-A*68:02. The description is as above.
The next experiment concerns the target HLA-A*26:01. Described as above.
The next experiment addresses HLA-A*25:01. Described as above. The settings on record: source organism: Yersinia pestis Nepal516.
Another experiment has as its target HLA-B*39:01. The experiment is described as above.
For another experiment, the target named is HLA-A*02:11. Described as above.
Another experiment addresses HLA-B*18:01. The description is as above.
A further experiment concerns the target HLA-B*46:01. The description is as above.
The next experiment addresses HLA-B*27:03. The description is as above.
The next experiment addresses HLA-A*02:03. The experiment is described as above. The settings on record: source organism: Yersinia pestis Nepal516.
For the next experiment, the target named is HLA-A*80:01. Described as above. The conditions noted are these: source organism: Yersinia pestis Nepal516.
In a further experiment the target is HLA-A*02:19. Described as above.
The next experiment deals with HLA-A*03:01. The experiment is described as above.
For a further experiment, the target named is HLA-A*69:01. The experiment is described as above.
The target in experiment [1] is HLA-A*02:01. The experiment is described as above. The conditions noted are these: source organism: Yersinia pestis Nepal516.
The target of another experiment is HLA-B*15:17. Described as above. The conditions noted are these: source organism: Yersinia pestis Nepal516.
For another experiment, the target named is HLA-B*15:42. The experiment is described as above.
The next experiment concerns the target HLA-B*27:20. The experiment is described as above. The conditions noted are these: source organism: Cryptosporidium parvum Iowa II.
The target of another experiment is HLA-A*03:19. The description is as above. The conditions noted are these: source organism: Cryptosporidium parvum Iowa II.
The target of another experiment is HLA-B*45:06. The description is as above.
A further experiment has as its target HLA-B*83:01. The experiment is described as above.
A further experiment has as its target HLA-C*14:02. The description is as above. The settings on record: source organism: Entamoeba histolytica HM-1:IMSS.
For another experiment, the target named is HLA-A*68:23. The experiment is described as above. The settings on record: source organism: Entamoeba histolytica HM-1:IMSS.
The target in the next experiment is HLA-A*32:15. The experiment is described as above. The settings on record: source organism: Entamoeba histolytica HM-1:IMSS.
The target of the next experiment is HLA-C*15:02. Briefly: IEDB peptide-MHC binding, purified MHC/direct/fluorescence; filed as Kd, often an IC50 or EC50 that approximates it; ≥ and ≤ were set here for values at or beyond the usual limits of such assays. The settings on record: source organism: Entamoeba histolytica HM-1:IMSS.
For experiment [2], the target named is HLA-A*02:01. In words: IEDB peptide-MHC binding, purified MHC/competitive/radioactivity; ≥ and ≤ were set here for values at or beyond the usual limits of such assays. The conditions noted are these: source organism: Homo sapiens.
The mark [3] stands for this setting: source organism: Yersinia pestis Nepal516.
Where [4] appears, read: source organism: Cryptosporidium parvum Iowa II.
Setting [5] is: source organism: Entamoeba histolytica HM-1:IMSS.

Broadly, the Kd is the concentration at which binding is half-saturated. For LELIGNAES, the Kd in the experiment with HLA-A*02:16, with HLA-B*51:01, with HLA-A*02:12 (setting [3]), with HLA-B*15:01, with HLA-A*29:02 (setting [3]) and with HLA-B*57:01 (setting [3]) was not below 20 µM each time. Further, the Kd with HLA-A*68:02 (setting [3]) was not below 20 µM; in the experiment with HLA-A*26:01 (setting [3]), not below 20 µM; with HLA-A*25:01, not below 20 µM; with HLA-B*39:01 (setting [3]), not below 20 µM; with HLA-A*02:11 (setting [3]) it was not below 20 µM; with HLA-B*18:01 (setting [3]), 0.921 µM. For the same sequence, the Kd with HLA-B*46:01 (setting [3]), with HLA-B*27:03 (setting [3]), with HLA-A*02:03, with HLA-A*80:01, with HLA-A*02:19 (setting [3]) and with HLA-A*03:01 (setting [3]) was not below 20 µM throughout. Moreover, the Kd with HLA-A*69:01 (setting [3]), in the experiment with HLA-A*02:01 [1] and in the experiment with HLA-B*15:17 was not below 20 µM each time.
For RIYKRSLKL, the Kd is not below 20 µM with HLA-A*02:12 (setting [4]); 2.19 µM in the experiment with HLA-B*15:42 (setting [4]); not below 20 µM in the experiment with HLA-A*29:02 (setting [4]); not below 20 µM with HLA-B*57:01 (setting [4]); not below 20 µM with HLA-A*68:02 (setting [4]); not below 20 µM with HLA-A*26:01 (setting [4]). In addition, the dissociation constant Kd was not below 20 µM with HLA-B*39:01 (setting [4]); not below 20 µM with HLA-A*02:11 (setting [4]); not below 20 µM with HLA-B*18:01 (setting [4]); not below 20 µM in the experiment with HLA-B*46:01 (setting [4]); not below 20 µM in the experiment with HLA-B*27:03 (setting [4]); 0.0293 µM in the experiment with HLA-B*27:20. Besides, the Kd in the experiment with HLA-A*03:19 was 0.0141 µM; with HLA-B*45:06 (setting [4]) it was not below 5 µM; with HLA-B*83:01 (setting [4]), not below 5 µM; in the experiment with HLA-A*02:19 (setting [4]) it was not below 20 µM; with HLA-A*03:01 (setting [4]), 0.0189 µM; with HLA-A*69:01 (setting [4]), not below 20 µM.
Take YIISTHYQF: the Kd in the experiment with HLA-C*14:02 was 0.158 µM; with HLA-B*15:42 (setting [5]), not below 5 µM; in the experiment with HLA-A*29:02 (setting [5]), 0.0003 µM; in the experiment with HLA-A*68:23, 0.204 µM; with HLA-B*45:06 (setting [5]) it was not below 5 µM; with HLA-B*83:01 (setting [5]), 5.79 µM. Moreover, the dissociation constant Kd with HLA-A*32:15 was determined as 0.213 µM; in the experiment with HLA-C*15:02 it was 1.94 µM.
In general, IC50 refers to the point on the concentration scale where inhibition reaches its midpoint. In the case of KMDSFLDMQL, the IC50 with HLA-A*02:01 [2] came out at 0.0114 µM.
